Test results taken from PMC7378079 (Scientific Reports, 2020).
Changes are numbered by the printed parent chain. In names and notes the source's numbering stands. Read-outs that look alike come from different tables or passages of the source.

Legend:
TNKS2 (tankyrase 2) ARC4 [1] = target: T1, TNKS2 (tankyrase 2) ARC4 (Homo sapiens, UniProt Q9H2K2); experiment: FRET competition with YFP-TBM peptide (Ki calculated from IC50); DSF Tm shift […] °C at […]; assay type: binding
T1 construct: ARC4 domain (ankyrin repeat cluster 4); CFP-ARC4 fusion in FRET, unlabelled ARC4 in DSF
T1 sequence (Q9H2K2 484-649 limits assumed): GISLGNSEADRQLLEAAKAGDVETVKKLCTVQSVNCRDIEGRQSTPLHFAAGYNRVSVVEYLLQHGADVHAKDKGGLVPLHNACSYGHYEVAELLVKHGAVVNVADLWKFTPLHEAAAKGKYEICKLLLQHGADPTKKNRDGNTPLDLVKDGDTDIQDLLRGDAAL

TNKS2 (tankyrase 2) ARC4 [2] = target: T1, TNKS2 (tankyrase 2) ARC4; experiment: as above; assay type: binding; remark: listed apart in the source
unlabelled TNKS2 ARC4 = target: T2, unlabelled TNKS2 ARC4 (human, His6-MBP removed by TEV; the residual N-terminal SM is omitted; limits from the TNKS2 ARC4 crystal construct convention); experiment: differential scanning fluorimetry; 5 µM unlabelled TNKS2 ARC4, 5x SYPRO Orange, 100 µM TBM peptide; assay buffer pH 7.0, 1% DMSO; 20-95 °C at 1 °C/min; 4 replicates; conditions: both partners purified
T2 chain: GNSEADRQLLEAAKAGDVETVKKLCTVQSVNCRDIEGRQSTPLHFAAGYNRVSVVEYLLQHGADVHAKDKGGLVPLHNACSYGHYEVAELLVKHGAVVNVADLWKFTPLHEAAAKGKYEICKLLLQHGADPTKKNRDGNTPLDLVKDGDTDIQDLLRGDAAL

TNKS1 SAM(E1050K)-CFP = target: T3, TNKS1 SAM(E1050K)-CFP (human, UniProt O95271 1030-1089, E1050K); experiment: FRET or BRET; titration for Kd after Song et al.: CFP-fusion kept constant (50 nM to 1.1 µM), YFP-fusion 0-4,000 nM; FRET emission on excitation at 430 nm; assay buffer 10 mM Bis-Tris-Propane pH 7.0, 3% PEG20,000, 0.01% Triton-X100, 0.5 mM TCEP; 384-well plates, 4 replicates; the paper calls the constants an estimation; conditions: both partners purified
T3 construct: human tankyrase 1 (TNKS1), sterile alpha-motif (SAM) domain; also called ML surface mutant of the TNKS1 SAM domain; source: E. coli BL21(DE3), purified (IMAC); not shown: mCerulean (CFP), C-terminal, kept
T3 sequence (looked up): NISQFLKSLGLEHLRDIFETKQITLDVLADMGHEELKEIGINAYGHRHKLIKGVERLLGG

CFP-ARC2-3 (TNKS1) [3] = target: T4, CFP-ARC2-3 (TNKS1) (human, mCerulean fusion omitted; conventional ARC limits); experiment: as above; conditions: both partners purified
T4 chain: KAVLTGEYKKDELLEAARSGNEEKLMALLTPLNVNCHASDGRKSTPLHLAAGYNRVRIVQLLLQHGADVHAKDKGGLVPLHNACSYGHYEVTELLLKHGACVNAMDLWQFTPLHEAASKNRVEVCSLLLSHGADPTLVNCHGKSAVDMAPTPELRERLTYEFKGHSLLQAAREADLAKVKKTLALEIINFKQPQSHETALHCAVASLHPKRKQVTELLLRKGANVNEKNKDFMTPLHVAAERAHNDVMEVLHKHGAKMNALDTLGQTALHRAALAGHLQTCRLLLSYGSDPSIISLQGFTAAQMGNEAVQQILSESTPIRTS

CFP-ARC1 (TNKS2) = target: T5, CFP-ARC1 (TNKS2) (human, N-terminal mCerulean fusion omitted; conventional ARC limits); experiment: as above; conditions: both partners purified
T5 chain: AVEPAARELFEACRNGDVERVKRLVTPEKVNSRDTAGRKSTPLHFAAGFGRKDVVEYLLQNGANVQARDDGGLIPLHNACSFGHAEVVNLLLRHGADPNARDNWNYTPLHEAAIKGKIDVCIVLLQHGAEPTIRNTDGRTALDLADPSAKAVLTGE

CFP-ARC2 (TNKS1) = target: T6, CFP-ARC2 (TNKS1) (human, N-terminal mCerulean fusion omitted; conventional ARC limits); experiment: as above; conditions: both partners purified
T6 chain: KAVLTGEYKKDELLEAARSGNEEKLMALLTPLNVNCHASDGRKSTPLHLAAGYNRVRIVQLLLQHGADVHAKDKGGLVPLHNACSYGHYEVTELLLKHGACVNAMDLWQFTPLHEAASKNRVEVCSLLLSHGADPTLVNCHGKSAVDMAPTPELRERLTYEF

CFP-ARC4 (TNKS2) = target: T7, CFP-ARC4 (TNKS2) (human, N-terminal mCerulean fusion omitted; limits from the TNKS2 ARC4 crystal construct convention (e.g. 3TWR), as Table S1 is not shown); experiment: as above; conditions: both partners purified
T7 chain: T2 chain

CFP-ARC1 (TNKS1) = target: T8, CFP-ARC1 (TNKS1) (human, N-terminal mCerulean fusion omitted; conventional ARC limits); experiment: as above; conditions: both partners purified
T8 chain: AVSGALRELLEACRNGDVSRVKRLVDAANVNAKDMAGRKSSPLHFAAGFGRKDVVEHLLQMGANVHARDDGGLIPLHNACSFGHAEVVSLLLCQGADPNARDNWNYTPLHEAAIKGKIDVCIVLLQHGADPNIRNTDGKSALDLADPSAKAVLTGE

CFP-ARC5 (TNKS1) = target: T9, CFP-ARC5 (TNKS1) (human, N-terminal mCerulean fusion omitted; conventional ARC limits); experiment: as above; conditions: both partners purified
T9 chain: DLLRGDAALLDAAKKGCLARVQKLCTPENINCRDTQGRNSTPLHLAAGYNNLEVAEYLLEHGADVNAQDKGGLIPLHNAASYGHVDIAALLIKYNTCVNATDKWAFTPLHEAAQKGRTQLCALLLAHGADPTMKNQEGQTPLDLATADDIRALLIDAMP

CFP-ARC5 (TNKS2) = target: T10, CFP-ARC5 (TNKS2) (human, N-terminal mCerulean fusion omitted; conventional ARC limits); experiment: as above; conditions: both partners purified
T10 chain: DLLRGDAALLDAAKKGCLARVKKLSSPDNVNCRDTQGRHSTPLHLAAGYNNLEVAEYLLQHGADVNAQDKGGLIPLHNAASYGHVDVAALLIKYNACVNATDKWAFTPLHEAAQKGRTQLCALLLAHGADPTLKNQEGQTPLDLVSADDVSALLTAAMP

CFP-ARC2-3 (TNKS1) [4] = target: T4, CFP-ARC2-3 (TNKS1); experiment: as above; conditions: both partners purified
CFP-ARC4 (TNKS1) = target: T11, CFP-ARC4 (TNKS1) (human, N-terminal mCerulean fusion omitted; limits by homology to TNKS2 ARC4 488-649); experiment: as above; conditions: both partners purified
T11 chain: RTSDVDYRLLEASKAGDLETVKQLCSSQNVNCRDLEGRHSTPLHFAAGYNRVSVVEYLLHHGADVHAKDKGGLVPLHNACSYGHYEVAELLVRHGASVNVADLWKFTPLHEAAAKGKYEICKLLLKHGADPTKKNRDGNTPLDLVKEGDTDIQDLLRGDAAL

Molecule: O=C(O)c1cc(O)c2c(Cl)cc(Cl)cc2n1 [DCKA, 5,7-dichlorokynurenic acid]
- Ki (TNKS2 (tankyrase 2) ARC4 [1]): 62000 nM

Molecule: O=c1[nH]c2cc(C(F)(F)F)c(N3CCOCC3)cc2n(CP(=O)(O)O)c1=O [Fanapanel]
- Ki (TNKS2 (tankyrase 2) ARC4 [2]): 20000 nM

B1: TBM-peptide (REAGDGEE) (peptide)
peptide: REAGDGEE
notes: also called 8-mer TBM peptide; source: synthetic peptide, bought: JPT Peptide Technologies
- Tm shift at 100 µM (unlabelled TNKS2 ARC4): 2.94 ± 0.16 °C

B2: TNKS1 SAM(Y1073A)-YFP (domain or fragment, human, UniProt O95271 1030-1089, looked up)
chain: T3 sequence (looked up) with K21E, Y44A
notes: human tankyrase 1 (TNKS1), sterile alpha-motif (SAM) domain; also called EH surface mutant of the TNKS1 SAM domain; source: E. coli BL21(DE3), purified (IMAC); not shown: mCitrine (YFP), C-terminal, kept
- Kd (TNKS1 SAM(E1050K)-CFP): 560 nM

B3: YFP-TBM (peptide)
chain: REAGDGEE
notes: also called TBM (REAGDGEE); YFP-fused TBM; source: E. coli BL21(DE3), purified (IMAC); not shown: mCitrine (YFP), N-terminal, kept
- Kd (CFP-ARC2-3 (TNKS1) [3]): 13 nM
- Kd (CFP-ARC1 (TNKS2)): 970 nM
- Kd (CFP-ARC2 (TNKS1)): 8.2 nM
- Kd (CFP-ARC4 (TNKS2)): 35 nM
- Kd (CFP-ARC1 (TNKS1)): 2600 nM
- Kd (CFP-ARC5 (TNKS1)): 27 nM
- Kd (CFP-ARC5 (TNKS2)): 33 nM
- Kd (CFP-ARC2-3 (TNKS1) [4]): 12 nM
- Kd (CFP-ARC4 (TNKS1)): 45 nM
